Data published in the nanobody polyreactivity screen of Harvey et al. (2022).

Experiment: yeast display, Sf9 membrane polyspecificity reagent, FACS + sequencing; frameworks hold sequencing errors
Method in brief: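 Galactose induction of a Saccharomyces cerevisiae BJ5465 synthetic nanobody display library ran 36–48 hours. The cells were then stained for 1 hour at 4 °C with 10% biotinylated, detergent-solubilized Sf9 membrane reagent, pulled down on streptavidin microbeads and FACS-sorted into low and high (top ~1%) gates on expression and reagent-binding fluorescence. Labels for polyreactivity follow the gate of origin.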

Row | Sequence | polyreactivity (PSR sort gate)
1 | QVQLVESGGGLVQAGGSLRLSCAASGRIFGTYAMGWYRQAPGKERELGAAITQSGGRTYYADSVKGRFTISRDNAKKTDYLQMKSLKPEDTAVYYCNKVTYRGIGLGYDYWGQGTQVTVSS | high polyreactivity
2 | QVQLVESGGGLVQAGGRLRLSCAASGSTFGYYARGWYRQAPGKERELVAAISTSSGSKYFADSVKGRFTISRDNAKNTVYLQMNSLKPEDTAVYYCNARKASYRSIYYYWGQGTQVTVSS | high polyreactivity
3 | QVQLVESGGGLVQAGGSLRLSCAASGRIFSAYAMGWYRPAPGKERELVAAISKRGGRTYYADSVKGRFTISRDNAKNTVYLQMNSLKPEDTAVYYCNKRYHDGHELDYWGQGTQVTVSS | high polyreactivity
4 | QVQLVESGGGLVQAGGSLRLSCAASGYTFWWYAMGWSRQAPGKERELVAAISIGGSTKYADSVKGRFTISRDNAKNTVYLQMNSLKPEDTAVYYCAAEVSYHYVPYGYWGQGTQVTVSS | low polyreactivity
5 | QVQLVESGGGLVQAGGSLRLSCAASGSTLGVYAMGWYRQAPGKERELVAAITIGGSTNFADSVKGRFTISRDNAKNTVYLQLNSLKPEDTAVYYCNAYYYWEGHGYTLLSYYYWGQGTQVTVSS | low polyreactivity
6 | QVQLVESGGGLVQAGGSLRLSCAASGSIFWSYAMGWYRQAPGKERELVADSVKGRFTISRDNAKNTVYLQMNSLKPEDTAVYYCAADSPSAPVYLYDYWGQGTQVTVSS | low polyreactivity
7 | QVQLVESGGGLVQAGGSLRLSCAASGRIWWNAMGWYRPAPGNETELVAAIRWSGGITRYADSVKGRFTISRDNAKNTVDLQMHSLKPEDTAVYYCAARLGGSIRSKFDYWGQGTQVTVSS | high polyreactivity
8 | QVQLVESGGGLVQAGGSLRLSCADSGFTFTYYDMGWYRQAPGKERELVAAISSGGSTNYADSVKGRFTISRDNAKNTVYLQMNSLKPEDTAVYYCAASITHYWYGYWGQGTQVTVSS | high polyreactivity
9 | QVQLVESGGGLVQAGGSLRLSCAASGSIFYQYAMGWYRQAPGTERELVAAITWIGSPNYADSVKGRFTISRDNAKNTVYLQMNSLKPEDTAVYYCNTDPYVLQKYDYWGQGTQVTVSS | low polyreactivity
10 | QVQLVESGGGLVQAGGSLRLSCAASGRIFPYYDMGWYRQAPGKERELVAGITTSGGTTYADSVKGRFTISRDNAKNTVYLQMNSLKTEDTAVYYCNKLRLRLSRWTYDYWGHGTQVTVSS | low polyreactivity
11 | QVQLVESGGGLVQAGGSLRLSCAASGSTSYDYAMGWYRQAPGKERELVAAISRRGGSTYYADSVKGRFTISRDNAKNTVYLQMNSLKPEDTAVYYCAARSYSYLGWFSYDYWGQGTQVTVSS | low polyreactivity
12 | QVQLVESGGGLVQAGGSLRLSCAASGSNFEYYTMGWYRQAPGKEREFVAAITFTGDSTYYADSVKGRFTSSRDNAKNTVYLQMNSLTPEDTAVYYCNDDSDTYDGEYDYWGQGTQVTVSS | low polyreactivity
13 | QVQLVESGVGLVQAGGSLSLSCAASGRTFAYNAMGWYRQAAGKERELVAAINGDGGSTYYADSVKGRFTISRDNAMNTDYLQMISLKPEDTAVYYCAADLKYDGAYDYWGQGTQVTVSS | high polyreactivity
14 | QVQLVESGGGLVQAGGSLRLSCPASGFTFVTNAMGWYRQAPGKERELVAAISKSGDRTYYADSVKGRFTISRDNAKNTVYLQMNSLKPEDTAVYYCAAGNSNWGQGTQVTVSS | high polyreactivity
15 | QVHLVESGGCLVQAGGSLRLSCAASGFTITYNAMGWYRQAPGKEREFVAAITNNGSTYYADSVKGRFTISRDNAMNTVYFQMNSLKPEDTAVYYCAVDPGYYDEYNYWGQGTHVTVSS | low polyreactivity
16 | QVQLVESGGGLVQAGGSLRLSCAASGRIFFLYAMGWSRQAPGKERELVAAITKSGGSTYADSVKGRYTISRDNAKNPVYLQMNSLKPEDTAVYYCATENTDSRDSGYIVKYGSDYWGQRTQVTVSS | low polyreactivity
17 | QVQLVESGGGLVQAGGSLRLSCAASGRIFTPYAMGWYRQARGKEREVVAVIRDGSTYYADSVKGSFTISRDNAKNTVYLQMNSLKPEDTAVYYCRYDIWVWWSGAYDYWGQGTQVTVSS | low polyreactivity
18 | QVQLVQSGGGLVQAGGSLRLSCAASGRIFADNAMGWYRQAPGKERELVADITYSGGSTYYADSVKGRFTISRDNAKNTVYLQMNILKPEDTVVYYCAAGRSSLYFPGYYYWGQGTLVTVSS | low polyreactivity
19 | QVQLVESGGGLVQAGGSLRLSCAPSGSTFDIYAMGWYRQAPGKERELVARISSGGGRTYYADSVKGRFTISRDNAKNTVYLQMNSLKPEDTAVYYCARDNEPDYYSYPYDYWGQGTQVTVSS | low polyreactivity
20 | QVQLVESGGGLVQAGGSLRLSCAASGRTFAKYAMGWSRPAPGKERELVAAIRWSGGSTYYADSVKGRFTISRDNAKNTVYLQMTSLKPEDTAVYYCATERFVLGLGYDYWGQGTQVTVSS | high polyreactivity
21 | QVQLQESGGGLVQAGGSLRLSCAASGYISSWYPKGWYRQAPGQEREFVATIAPGATTYYADSVKGRFTMSRDYAKNTVYLQMNSLKPEDTAVYYCAAGPENNDFYSYWGQGTQVTVSS | low polyreactivity
22 | QVQLVESGGGLVQAGGSLRLSCAASGRTFWKYAMGWYRHAPGKERELVAAITDDDSTDYADSVKGRFTISRDNAKNTVYLQMNSLKPEDTAVYYCNADSSRYYRALEYWGQGTQVTVSS | low polyreactivity

Row | Sequence | polyreactivity (PSR sort gate)
23 | QVQLVESGGGLVQAGGSLRLSCAASGNIFQRYAMGWYRQAPGKERELVAAISGNGGNTFYADSVKGRFTISRDNAKNSVYLQMNSLKPEDTAVYYCNTVYVVYGYDYWGQGTQVTVSS | high polyreactivity
24 | QDQHVESGGGLVQAGGSLRLSCAASGLTSLGNAMGWYRQAPGKERELVAAITRTGTSTYYADSVKGRFTISRDNAKNTVYLQMNSLKPEDTAVYYCAADWWYGYSNYDYWGQGTQVTVSS | low polyreactivity
25 | QVQLVESGGGLVQAGGSLRLSCAASGLIFSYYAMGWYRQAPGKERELVAAISWSGGSTYYADSVKGRFTISRDNAKNTVYLQMNSLKPEDTAVYYCAADRISADYDYWGQGTQVTVSS | low polyreactivity
26 | QVKLVESGGGLVQAGGSLRLSCGASVGTFYRYSMVWFRQAPGKERELVAVISKRGGTTYYADSVKRRFTISRDNANNTVNLQMNSLKPEDTAVYYCADRPYYWGQGTQVTVSS | high polyreactivity
27 | QDQLVESGGGLVQEGRILRLISADSGRISRFNAMGWYRPAPGKERELVAAITRGASTYYADSVKGRFTISRDNAKNTVYLEMNSVKPEVTAVYYCAAAPSYSWTSVARYFYWGQGTQVPVSS | high polyreactivity
28 | QVQLVESGGGLVQAGGSLRLSCAASGFIFGSYAMGWYRQAPGKERELVAAITRSGGNTYYADSVKVRFTISRDNAKNTVYLQMNSLKPEDTAVYYCAAYSGYWYDYWGQGTQVTVSS | high polyreactivity
29 | QDQLVESGGGLVQAGGSLRLSCAASGRTFIYYVMGWSRQAPGKERELVAAISLRGSSTRYADSVKGRFTISRDNAKNTVYLQMNSLKPEDTAVYYCAARPRLSRYDYWGQGTQVTVSS | high polyreactivity
30 | QVQLVESGGGLVQAGGSLRLSCAASGRTFPYYTMGWYRQAPGKERELVAAISRSGGSTYYADSVKGRFTISRDNAKNTVYLQMNSLKPEDTAVYYCAAGIYRYNRYWGYNYWGQGTQVTVSS | high polyreactivity
31 | QVQLVESGGGLVQAGGSLRLSCAASGRTFGKYAMGWDRQAPGKEMELVAAISTDVGDTYYADSVKGRFTISRDNAKNTVYLQMNSLKPEDTAVYYCAASFVYYGVDFVSWFWEGDYWGQGTQVTVSS | low polyreactivity
32 | QVQLVESGGGLVQAGGSLRLSCAASGSIVIINTMGWYRQAPGKERELVAAISWGGTDTNYADSVKGRFTISRDNAKNTVYVQMNSLKPEDTAVYYCNTDQDLVRSYDYWGQGTQVTVSS | low polyreactivity
33 | QVQIVESGGGLVQAGGSLRLSCDASGSIFYSNAIGWYRQAPGKERELVASIRGSGVSTYYADSVKGRFTISRDNAKNTVYLQMNSLKPEDTAVYYCAARYVRSYFGFYYWGQGTQVTVSS | high polyreactivity
34 | QVQLVESGGGLVQAGGSLRLSCAASGRTFDPNAMGWYRQAPGKERELVAVITARGGNTSYADSVKGRFTISRDNAKNTVYLQMISLKPEDTAVYYCAAPADDTVHYQNYYWGQGTQVTVSS | low polyreactivity
35 | QVQLVESVGGLVQAGGSLRLSCAASGSIFFNYTMGWYRQAPGKERELVAAINSSGGRTNYADSVKGRFTISRDNAKNTVYLQMNSLKPEDTAVYYCAAVYYDVWYVYWGQGTQVTVSS | low polyreactivity
36 | QVQLQESGGVLVQAGGSLRLSCAASGSIYDDTYMGWYRQAPGKERELVATIDSGSTTNYADSVKGRITICRDNAKNSVDLQMNTLKPEDTAVYYCAAADSHIDYFDYWGQGTQVTVSS | low polyreactivity
37 | QGQLVESGGGLVQAGGSLSLSCAASRLTFYSNAMGWYRPAPGKEREMVAAISWIGASTYYADSVKGRFPISRDNAKNTVYLQMNSLKPEDTAVYYCAARAQARVFGWRFYYWGQGTQVTVSS | high polyreactivity
38 | QVQLVESGGRLVQAGGSLRLSCAASGIIFKGYDMGWYRQEHGKVRELVAGITWIVGSTYADSVKGRFTISRDNAKNTVYLQMNSLKPEDTAVYYCNADPELTGYRFLCAEGVEYWGEGTQVTVSS | low polyreactivity
39 | QVQLVESGGGLVQAGGSLRLSCAASGLIFLDYAMGWNRQAPWKERELVAAITGRGGSTYYADSVKGRFTISRDNAKNTVYLQMNSLKPDDTAVYDCAAQYSYPTPYRTYEYDYWGQGTQVTVSS | high polyreactivity
40 | QVQLQESGGGRMQAGGSQRLSCAASGSISYYSDMGWYRQAPGKEREFVAGIGYGTTTNYADSVKGRFTTSRDNAKNTVYLQMISMKPEDTAVYYCAAYQGNGYEFYYWGQGTQVTVRS | low polyreactivity
41 | QVQLVESGGCLVQAGGSLRLSCAASGFTFLDYVMGWYRPAPGKERELVAVITVSGGSTYYADSVKGRFTISRDNAKNTVYLQMTSLKPEDTAVYYCNAYTIEYPFGDSYWYNYDYWGQGTQVTVSS | high polyreactivity
42 | QVQLVESGGGLVQAGGSLRLSCAASGRIFNGNAMGWYRQAPGKEREFVAAITWNGGRTYYADSVKGRFTISRDYAKNTVYLQMNSLKPEDTAVYYCNADPYHRRSSGDYWGQGTQVTVSS | high polyreactivity
43 | QLQLVESGGVIVQAGGSLRLSCAASGITIYYNAMGGYRHAPGQVRELVAAITRSGGSPNYADSVKGRFTISRDNAKNNVYLQMKSLKPEDTAVYSCAKGHLYAGHRHYAYGYWGQGTQVTVSS | low polyreactivity
